Reference: PMC2693034

Assays:
[1] = target: IcmQ with a C-terminal 6xHis-tag (Legionella pneumophila); test: SEC
[2] = target: IcmQ with a C-terminal 6xHis-tag (Legionella pneumophila); test: […]
[3] = target: Qn(1-57), N-terminal domain of IcmQ (Legionella pneumophila); test: SEC

Substance | stoichiometry N [1] | stoichiometry N [2] | stoichiometry N [3]
IcmQ with a C-terminal 6xHis-tag (natural protein) | 2 | 2 | –
Qn(1-57), N-terminal domain of IcmQ (domain or fragment) | – | – | 2
